The source of these data is PMC7857400.

The assay deals with SARS-CoV-2 spike protein receptor binding domain (RBD) (SARS-CoV-2) (UniProt P0DTC2).

homotrimeric Nb21 (Nb21_(3)) showed an IC50 of neutralisation, pseudovirus luciferase assay of 1.3 pM.
In turn, homotrimeric Nb20 (Nb20_(3)) returned an IC50 of neutralisation, pseudovirus luciferase assay of 4.1 pM.
